Assays:
[1] = molecular target: HPV16 E6, wheat germ extract translated (human papillomavirus type 16) (UniProt P03126)
[2] = molecular target: HPV16 E6, wheat germ extract translated (human papillomavirus type 16) (UniProt P03126); remark: listed apart in the source

| Substance | percent of the input 35S-labeled HPV16 E6 bound [1] | molar excess for fifty percent binding competition [2] |
| --- | --- | --- |
| GST-E6-AP fusion protein with amino acids 371 to 440 of SEQ ID NO:1 (SEQ ID NO:2) | 50% |  |
| GST-E6-AP fusion protein, amino-terminal portion (amino acids 213 to 489 of SEQ ID NO:1) | 50% |  |
| synthetic peptide consisting of the 18 mer region, amino acids 391 to 408 of SEQ ID NO:1 (SEQ ID NO:3) |  | 5000 |
